From publication PMC11335228 come the findings set out here.

Values joined by “and” are separate entries in the source; they are usually repeats but may differ in a detail not shown here. Equal values may be shown once.

Holding throughout (conditions): remark: other sources report otherwise
Experiment [1] has as its target T1, DAP12, endogenous in macrophage-like differentiated THP-1 cells (human (endogenous in THP-1)), O43914. The experiment is described as follows: non-reducing SDS-PAGE and western immunoblotting; membranes of differentiated THP-1 cells (wt and TREM2 ko; with or without MG132, lactacystin or chloroquine for 4 h); SDS sample buffer without DTT, 5 min 95 °C.
Experiment [2] has as its target T1, DAP12, endogenous in macrophage-like …. The experiment is described as above. The source holds these as a separate data set.
Experiment [3] addresses T2, DNAX-activating protein of 12 kDa (DAP12) wt, overexpressed in HEK293 cells, O43914. As to the kind of experiment: SDS-PAGE and western immunoblotting; HEK293 cells transiently expressing DAP12 wt or DAP12 D50A with or without TREM2 (blots of Fig. 5A); SDS resistant oligomers.
Experiment [4] addresses T2, DNAX-activating protein of 12 kDa …. As to the kind of experiment: SDS-PAGE and western immunoblotting; membranes of HEK293 Flp-In cells stably overexpressing DAP12 alone or with TREM2 wt or TREM2 K186N; with or without proteasome inhibitors (Suppl. Figure S3).

B1: DAP12, endogenous in macrophage-like differentiated THP-1 cells, O43914 22-113 (natural protein)
chain: LRPVQAQAQSDCSCSTVSPGVLAGIVMGDLVLTVLIALAVYFLGRLVPRGRGAAEAATRKQRITETESPYQELQGQRSDVYSDLNTQRPYYK
Turning to B1, the stoichiometry N in experiment [1] amounted to 2; in experiment [2], 3.

B2: DNAX-activating protein of 12 kDa (DAP12) wt, overexpressed in HEK293 cells, O43914 22-113 (natural protein)
chain: LRPVQAQAQSDCSCSTVSPGVLAGIVMGDLVLTVLIALAVYFLGRLVPRGRGAAEAATRKQRITETESPYQELQGQRSDVYSDLNTQRPYYK
Turning to B2, the stoichiometry N in experiment [3] was 3 and 4; in experiment [4] it was 2 and 3.
